{"source": "patent US12708677B2", "about": "“Contrast agents, methods for preparing contrast agents, and methods of imaging” (Georgia State University Research Foundation, Inc., priority 2008, dated 2026)", "molecules": {"B1": {"name": "CA1.CD2: designed Gd^3+-binding protein, domain 1 of rat CD2 with ligand residues Glu15, Glu56, Asp58, Asp62, Asp64 (protein)", "chain": "RDSGTVWGALGHGIELNIPNFQMTDDIDEVRWERGSTLVAEFKRKMKPFLKSGAFEIDANGDLDIKNLTRDDSGTYNVTVYSTNGTRILNKALDLRILE"}, "B2": {"name": "Gd-CA1.CD2: CA1.CD2 in complex with Gd^3+ (protein)", "chain": "B1 chain"}}, "key": {"[1]": {"assay": "Ca^2+ binding constant, dye competition / Tb^3+ FRET competition", "source_text": "Since metal selectivity for Gd^3+ over other physiological metal ions is for minimizing the toxicity of the agents,^39, 40 we measured metal binding constants using dye-competition assays with various chelate-metal buffer systems (Table 1). Low limit metal binding affinities of the proteins were also estimated based on Tb^3+-sensitized FRET and competition assays. […] This is considered for in vivo applications of the contrast agent as the phosphate concentration in serum is maintained at ~1.3 mM.^6, 9 The stability of a contrast agent in blood circulation is another factor for in vivo applications. We characterized the stability by incubating Gd-CA1.CD2 with 75% human serum at 37° C. for 3 and 6 hours.\nMetal binding affinity for Ca^2+ and Zn^2+ were determined using similar competition methods and specific dyes with proper Kd values."}, "[2]": {"assay": "Dynamic NMR, rotational correlation time and S^2 order", "format": "physicochemical", "protocol": "Therefore, the measured correlation time of the protein directly reflects the τR of the metal binding site. In contrast, the flexible metal binding loop in CA9.CD2 has an S^2 order value of 0.3-0.4, which is very different from CA1.CD2 with an S^2 value very close to that of the backbone of the protein.\nPulse field diffusion NMR was applied to measure the hydrodynamic radii of the protein (Lee et al., BBA 2003) with Protein samples CA1.CD2 and its variants of 0.2 mM in buffer, Lysozme and diaxone were used as an external and internal reference for calibration. The correlation size of the protein was measured using TauC pulse sequence developed by the Prestegard lab at UGA using ^15N labeled protein."}, "[3]": {"tested_on": "EMT6 cells", "assay": "Cell binding by immuno-fluorescence staining", "format": "cell-based, mouse", "source_text": "We first examined whether the designed CA1.HER2/Affi can target cancer cells by cell binding analyses. We used two cancer cell lines for the binding analyses. AU565 is derived from breast carcinoma. EMT6 is a mouse mammary tumor cell line. AU565 cells express very high levels of HER2. The EMT is regarded as a HER2 negative cell line. Binding of the Gd-CA1.HER2/Affi to the cancer cells was first analyzed by immuno-fluorescence staining using a polyclonal antibody against PEGylated parental protein CA1.CD2 (PAbPGCA1)."}, "[4]": {"tested_on": "CD-1 mice", "assay": "Mouse MR imaging", "format": "in vivo", "protocol": "(§1) Mouse MR Imaging. Care of experimental animals was in accordance with institutional guidelines. CD-1 mice (25-30 g, four mice were imaged) were anesthetized with an isoflurane gas mixture. The anesthetized animal was positioned and stabilized with soft-supporting material (e.g., foam) in the scanner in the coil cradle and was kept warm during the MRI scan. The mice were scanned prior to the administration of any contrast agent (pre-contrast). Approximately 50 μl of Gd-CA1.CD2 (~1.2 mM) or Gd-DTPA (~300 mM) were injected into the animal via the tail vein. MR images were collected at different times (indicated). For T1 weighted imaging at 3T, spin echo sequence with TE/TR=15 ms/500 ms was employed. Rectangular Field of View (FOV) at 100/40 mm, an acquisition matrix of 196^2 and 1.1 mm slice thickness without gap were used. Images were collected from both transverse and coronal sections. The in-plane resolution of images was less than 0.5 mm after they were reconstructed to the matrix of 196^2. For T2 weighted imaging at 9.4T, MR images were recorded using a multi-echo Carr-Purcell-Meiboom-Gill (CPMG) sequence. The data were collected and processed by Dicomworks software. The MR signal intensity in several organs was ascertained by the average intensity in ROIs or points within the organs. Signal intensity for each organ was normalized to that of the leg muscle.\nas §1, with “Care” for “Mouse MR Imaging. Care”, “(e.g.” for “(e.g.,”"}}}
{"molecule": "B1", "values": [{"measurement": "Metal binding constant (Log Ka) Ca^2+", "setting": "[1]", "value": "<2.22"}, {"measurement": "disassociation constant (Kd) for Ca^2+", "setting": "[1]", "value": "≥ 6", "unit": "mM"}, {"measurement": "Log (KGd/KCa)", "setting": "[1]; metal selectivity", "value": ">9.84"}, {"measurement": "overall correlation time", "setting": "[2]; absence of bound metal ions", "value": 9.20, "unit": "ns"}, {"measurement": "overall correlation time", "setting": "[2]; presence of bound metal ions", "value": 9.08, "unit": "ns"}, {"measurement": "binding to EMT6 cells", "setting": "[3]", "value": "did not bind to either of the tested cultured cells"}]}
{"molecule": "B2", "values": [{"measurement": "MRI contrast enhancement, T1 weighted spin echo", "setting": "[4]; 3T, ~2.4 μmole Gd/kg via tail vein", "value": "greatest enhancement of the MRI contrast observed in the kidney"}, {"measurement": "T2 contrast enhancement", "setting": "[4]; 9.4T", "value": "strong T2 contrast enhancement"}, {"measurement": "T1 contrast enhancement in the kidney cortex", "setting": "[4]; 18 hours after administration", "value": "diminished substantially"}, {"measurement": "duration of contrast enhancement at multiple organs", "setting": "[4]; mouse, in vivo", "value": "4 to 7", "unit": "h"}]}
